Test results as given in PMC7498313, “The Sac10b homolog from Sulfolobus islandicus is an RNA chaperone”.
“And” between values parts separate entries of the source, which are not always exact repeats. Identical values can stand only once.

Key:
[1] = target: Sis10b M20E/L24E/L27E/F60E (Sulfolobus islandicus REY15A); experiment: cross-linking; 10 μg protein cross-linked with 0.5 mM DSP, with or without 5 μg of a 25-bp dsRNA, 30 min at 25 or 55°C, 20 mM potassium phosphate pH 7.6, 50 mM KCl; 15% SDS-PAGE, Coomassie stain
[2] = target: N-terminally truncated Sis10b (ΔN12) (Sulfolobus islandicus REY15A); experiment: as above
Sis10b wild-type = target: T1, Sis10b wild-type (Sulfolobus islandicus REY15A, UniProt F0NHH1 1-97); experiment: EMSA; 55°C; EMSA: 20 mM HEPES-NaOH pH 7.0, 1 mM DTT, 100 ug/ml BSA, 6% glycerol, 30 min at 25, 37 or 55°C; gel in 0.5x TBE at the same temperature; conditions: protein: recombinant, tags: none (NdeI/XhoI pET30a, stop codon in reverse primer), chain copies: 2
T1 sequence: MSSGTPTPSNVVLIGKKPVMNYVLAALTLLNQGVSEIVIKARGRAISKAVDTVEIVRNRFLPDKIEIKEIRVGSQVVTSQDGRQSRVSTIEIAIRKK

Sis10b M20E/L24E/L27E/F60E
stoichiometry N [1]: 5 and 3

N-terminally truncated Sis10b (ΔN12) (domain or fragment)
stoichiometry N [2]: 2 and 4

B1: 44-bp dsRNA (dsRNA)
RNA 1: UGACUUCCGCGCGUGAGCUCGAUUCCACAUACCCUAAAUCGCUC
RNA 2: GAGCGAUUUAGGGUAUGUGGAAUCGAGCUCACGCGCGGAAGUCA
Kd (Sis10b wild-type; label: 5' 32P on top strand, blunt): ~29.4 nM

UGACUUCCGCGCGUGAGCUCGAUUCCACAUACCCUAAAUCGCUC (ssRNA) [44-nt ssRNA (t)]
Kd (Sis10b wild-type; label: 5' 32P, single strand): ~5.3 nM
